In the supplement of paper PMC9170038:

Key:
Settings in all cases: FMN input: 0 or 200 uM; Eterna round: R93 (includes R88 designs)
MS2 coat protein [1] = assay: apparent KD of MS2 coat protein, switch ON state; designed switch direction (-1 OFF switch, 1 ON switch): 1; higher = weaker reporter binding
Method in brief: (§1)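 On-chip transcription from Illumina sequencing clusters produced the designed RNA switches. These were titrated with SNAP-549-labelled MS2 coat protein (twofold steps, 0.7 or 1.5 nM to 3 µM) in 100 mM Tris-HCl pH 7.5, 80 mM KCl, 4 mM MgCl2, with or without constant ligand. The apparent KD given is the per-design median of normalised cluster binding-curve fits.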

MS2 coat protein [2] = assay: apparent KD of MS2 coat protein, switch OFF state (with FMN for OFF switches, without FMN for ON switches); designed switch direction (-1 OFF switch, 1 ON switch): 1; higher = weaker reporter binding
Method in brief: as §1

MS2 coat protein [3] = assay: apparent KD of MS2 coat protein, switch ON state; designed switch direction (-1 OFF switch, 1 ON switch): -1; higher = weaker reporter binding
Method in brief: as §1

MS2 coat protein [4] = assay: apparent KD of MS2 coat protein, switch OFF state (with FMN for OFF switches, without FMN for ON switches); designed switch direction (-1 OFF switch, 1 ON switch): -1; higher = weaker reporter binding
Method in brief: as §1

Row | Sequence | apparent KD of MS2 coat protein (MS2 coat protein [1]) [nM] | apparent KD of MS2 coat protein (MS2 coat protein [2]) [nM] | apparent KD of MS2 coat protein (MS2 coat protein [3]) [nM] | apparent KD of MS2 coat protein (MS2 coat protein [4]) [nM]
1 | AAAGAAGAAAGUCAGGAUAUGGAUGGGUAAACAUGAGGAUCACCCAUGUAUAAGAAAGAAAGAAACCAGAAGGGACAAAAGAAAA [Artaxerxes III] | 34.6 | 135 | – | –
2 | AGAAAACAUGAGGAUCACCCAUGUUAGUGUCAUUAAGGAUAUAGGCUUAAGAAUCUGAGACUAGAAGGUGGUGCGC [Orbeus] | 21.9 | 30.8 | – | –
3 | GUGGCGCAGGUACAGGAUAUGUUUCUCGUAACAUGAGGAUCACCCAUGUACCUAUGAGAUUAAAUGCAGAAGGGUGCACGCCACG [Inedor] | 41.1 | 154 | – | –
4 | AAUACACAUGGUCAGGAUAUCGCAGCUAGGACAUGAGGAUCACCCAUGUCGCACGUAACCGUAACCGAGAAGGGACAGGGUGAUC [JR_SS002_Sub410] | 21.8 | 34 | – | –
5 | AACAAUCUAUCUGAGGAUAUAUGUCGAAAGACAUGAGGAUCACCCAUGUGAAAACAUGAAAAAACAUAGAAGGCAGAUAGAUUGA [SS2: 1136] | 28.5 | 54.3 | – | –
6 | UCAAAACAUGAGGAUCACCCAUGUAGUCUAAAGCGAGGAUAUGGGUUUCUUUAAAGAGUACCAGAAGGCGCCAAAA [Entibi] | 23.3 | 60.9 | – | –
7 | AGAAAUAAAACACAGGAUAUCCAAAAUAAAACAUGAGGAUCACCCAUGUAAAAUAAAAUAAAAUGGGAGAAGGGUGAAAAUAAAG [Mat - Same State 2 - JL mod - D10] | 25.3 | 39.9 | – | –
8 | UAUAAACAUGAGGAUCACCCAUGUAGAAAUAUGGGAGGAUAUACAAAGACGAAAGUCAAAGUAGAAGGCCUAAUAU [Mat - Same State 1 - Mod - D155] | 18.9 | 55.3 | – | –
9 | AGGAGACAUGAGGAUCACCCAUGUGAGAAGAGGCGAGGAUAUCGAAAGAAAGAAGAGAAACGAGAAGGCGCGAGGG [salish99-SS1-027] | 26.9 | 39.2 | – | –
10 | CGGAGACAUGAGGAUCACCCAUGUGAGAAGAGGCGAGGAUAUCGAAAGAAAGAAGAGAAAUGAGAAGGCGCGAGCC [salish99-SS1-081] | 36.2 | 39 | – | –
11 | AAAAAAAAAACUCAGGAUAUAGAUUGUUGAACAUGAGGAUCACCCAUGUAGUGAAAAGCGAAAAACUAGAAGGGAGGAAAAAAAAA [SameState2-03] | 30.5 | 63.3 | – | –
12 | ACUUCACAUGAGGAUCACCCAUGUCAGGCCGGACUAGGAUAUUAUCAUGCAGCGUAACCAUAAGAAGGAGUAGGAA [JR_SS001_Sub314] | 136 | 57.3 | – | –
13 | CAUCACGCGCCUAAGGAUAUGUCUCACAAGACAUGAGGAUCACCCAUGUAGACUAAAUAAACGAUGCAGAAGGUGGAGCGCAUGC [Usrexe] | 76.4 | 149 | – | –
14 | GGAGCCGGUACUGAGGAUAUUCAUAUUAAAACAUGAGGAUCACCCAUGUAGGCCAGAAAGCCUUGGGAGAAGGCAGAUCGGCUCG [Bienuslete] | 17.8 | 126 | – | –
15 | GACAAACAUGAGGAUCACCCAUGUAGACAUAUGGGAGGAUAUACACAGACGAAAGUCACAGUAGAAGGCCUACAAG [77%, Mat - Mod of Eli - With 5 more C's] | 26.9 | 82.4 | – | –
16 | GAAAAACAUGAGGAUCACCCAUGUGUAAAUAUGGGAGGAUAUACAAAGACGGAAGUCAAAGUAGAAGGCCUAAAAG [Mat - Same State 1 - Eli mod - D11] | 94.3 | 111 | – | –
17 | AAAAAGGUAGGAUAUACAUGAGGAUCACCCAUGUAAAUAAAUGGAGAAAAAAACAAUUGUAGAAGGGCCAAAAA [Ex3 Malc#8] | – | – | 39.9 | 43.1

Row | Sequence | apparent KD of MS2 coat protein (MS2 coat protein [1]) [nM] | apparent KD of MS2 coat protein (MS2 coat protein [2]) [nM] | apparent KD of MS2 coat protein (MS2 coat protein [3]) [nM] | apparent KD of MS2 coat protein (MS2 coat protein [4]) [nM]
18 | AAGUUGCUAGGAUAUACUUGGGCAACAAAUAAACUAAUAUAACAUGAGGAUCACCCAUGUAGAAGGAGCAGAAA [JR_Exc002_Sub206] | – | – | 31.8 | 34.9
19 | UAUGAGCGAGGAUAUGCUUGGGACGUCGUUCUUGCGGCGAGACAUGAGGAUCACCCAUGUAGAAGGCGCGAGCG [Harteesian Twist] | – | – | 17.4 | 16.7
20 | AAGAAGUCAGGAUAUGCGAAUCGAUAAGAACGUCAAAGAAAGCAGAAGGGACAUGAGGAUCACCCAUGUAAAGA [Opal 39] | – | – | 30.7 | 27.6
21 | AGAAUACAUGAGGAUCACCCAUGUGAGGAUAUCAGAAGAAAAAGAAAAGAAAAGAAACUGAGAAGGCACAAAAG [EX 1 May 15] | – | – | 35.7 | 66.1
22 | GAAAAGUCAGGAUAUACAGAAAAAAAAACGAAAAAAAAUCUGUAGAAGGGACAUGAGGAUCACCCAUGUAAAAG [Mat - Exclusion 4 - Mayanna - D123] | – | – | 52.6 | 38.7
23 | AACAUGUAAGGAUAUAGAAGAAAAGAAAAGAAAGAAAAGAACUAGAAGGUACAUGAGGAUCACCCAUGUAAGAA [EteRNA is fun!] | – | – | 33.1 | 16.2
24 | AAGAAGUCAGGAUAUGCCAAAGGUCACGAAAGUGACAAAGGGCAGAAGGGACAUGAGGAUCACCCAUGUAAAGA [Opal 2] | – | – | 47.2 | 56.7
25 | AGUUGGCGAGGAUAUACAUGAGGAUCACCCAUGUGAGAGAAAAACUCGAAAGAGAAAAGUAGAAGGCGCUGACA [73%, Moding Norbert Elias, 6] | – | – | 19.3 | 82.2
26 | AAAUGACUAGGAUAUACAUGAGGAUCACCCAUGUGUUAAAAUAAAUACACAAAAGAAAGUAGAAGGAGUCAAAA [Ex 3 May 15] | – | – | 22.3 | 59.7
27 | CCUAUGUCAGGAUAUCAGUAGUAAAAAAAAAAAAUUACUACUGAGAAGGGACAUGAGGAUCACCCAUGUCACUU [EX4 311: Super Stable 11] | – | – | 28.5 | 18.8
28 | GACUAGUCAGGAUAUACGAACAUGUCAAAAGACGUGAAGGAACAUGAGGAUCACCCAUGUAGAAGGGACUAGCA [Diamond 19] | – | – | 25.2 | 17.7
29 | AACUGACAUGAGGAUCACCCAUGUCAGGAUAUGACUUGACGAAAAAAAACACGUCAUGUCAGAAGGGACAUGGA [Design 89: Sub-opt Z] | – | – | 21.8 | 37.3
30 | AGAACGUGAGGAUAUACUAACAAACCUCAACAAACAAACAGACAUGAGGAUCACCCAUGUAGAAGGCACAAAAA [EXC - 2] | – | – | 54.2 | 27.2
31 | AGGAAACAUGAGGAUCACCCAUGUGAGGAUAUAGAAAAGAAAAGAAAAGAAAGAAGAACUAGAAGGCACAAGAA [Neheb] | – | – | 31.2 | 28.8
32 | GGGCCACAUGAGGAUCACCCAUGUAAGGAUAUGCUAGGGAUGGAAAAAAUUACGCAAAGCAGAAGGUACUAAAG [Janelle Amethyst 18 Mod 9 - Jieux - Exclusion 1] | – | – | 26.9 | 35.5
33 | AGCUAGUCAGGAUAUACGAAAACGAACGAAGCUGAGAAGGGACAUGAGGAUCACCCAUGUAGAAGGGACUAGCA [Diamond 33] | – | – | 36.4 | 107
34 | AACAGUACAGGAUAUACAUGAGGAUCACCCAUGUAGGGAUAAAGUGGCGUACCACAAAGUAGAAGGGUACUGGA [Moding Maslow revisited (73) 4] | – | – | 30.6 | 142
